The values that follow come from patent US20220276234A1, “POINT-OF-CARE IMMUNOASSAY FOR QUANTITATIVE SMALL ANALYTE DETECTION” (priority 2011, published 2022).

Changes are numbered by the printed parent chain.

The conditions of data set [1]: compared with parent compound aripiprazole and dehydro aripiprazole; cited from earlier work.
For data set [2] the following is noted: in vivo; cited from earlier work.
The conditions of data set [3]: cited from earlier work.
The next data set has as its system B7-HTHC immunocomplex. Put plainly: Sandwich type ELISA assay with selected derived B7-HTHC aptamers (5' biotin, HRP-streptavidin, TMB). It counts as binding. On the procedure:
The 11 aptamers were synthesized with a 5′ biotin such that they could be detected in ELISA-type assays. The aptamers were tested for their ability to bind to the target in two ways. In both assays, the antibody was coated onto the walls of a microtiter plate. In the first assay, HTHC was added to the antibody. After washing away unbound HTHC, the aptamers were added. In the second assay, the aptamers were added to the wells with HTHC simultaneously. In both assays, after washing away unbound aptamer, the plates were incubated with HRP-streptavidin, and then assayed for the amount of aptamer that remained bound to the immunocomplex using a colorimetric TMB assay.
A general note: An ELISA detects its analyte on a solid surface through an enzyme-linked reagent.

For another data set, the system named is B7 antibody alone. Description: Proprietary qPCR-based aptamer binding assay, immune complexes anchored to solid support. The following applies: qPCR amplification, FIG. 11. On the procedure: (§1) Binding selectivity was tested in varying salt conditions to determine optimal conditions for selection. Using a proprietary binding assay, the aptamers were allowed to incubate with immune complexes that were anchored to a solid support. After the incubation period, the immune complexes were washed, and the amount of aptamer binding was assayed via qPCR. Increased aptamer binding to the immune complex allowed faster detection of DNA amplification.
(§2) Of the aptamers tested, only one aptamer satisfied the following requirements: (1) binding to the correct immune complex, (2) no binding to the antibody alone, and (3) no binding to the antibody and the incorrect metabolite. FIG. 11 is a qPCR amplification curve showing the binding of Aptamer B7C4 with the immune complex B7-HTHC, the immune complex B7-THC, the B7 antibody alone, and a negative control. Theoretically, every additional cycle indicates 2 times fewer bound aptamer molecules.
(Real-time PCR tracks product formation cycle by cycle.)

In data set [4] the test system is B7-HTHC immune complex. The data set is described as above. The following applies: qPCR amplification, FIG. 11. On the procedure: as §1, §2
Another data set deals with B7-THC immune complex. Described as above. The note with it: qPCR amplification, FIG. 11. On the procedure: as §1, §2
The test system of data set [5] is B7-HTHC immune complex. Put plainly: Capillary electrophoresis test of candidate aptamers. It counts as binding. The following applies: electropherogram peak shift, FIGS. 10A and 10B. On the procedure: Following completion of aptamer selection, aptamers from the first, fifth, and tenth rounds of Structure Switching SELEX were sequenced using standard Next-Generation Sequencing (NGS) methods (AKESOgen). Of the sequences obtained by NGS, ten sequences per aptamer were tested using Capillary Electrophoresis (CE) and in a proprietary assay utilizing real-time PCR.
The candidate aptamers were initially tested using capillary electrophoresis. Of the 10 B7-HTHC aptamers, 3 were identified as candidate binders. […] This is likely due to the difference between the composition of the buffer required for capillary electrophoresis and the composition of the buffer used during the SELEX selection process.

Where [6] appears, read: separate incubation: aptamers added after HTHC and washing, FIG. 16A.
Setting [7] is: simultaneous incubation: aptamers added with HTHC, FIG. 16B.

`O=C(O)CCCOc1ccc2c(c1)NC(=O)CC2` [OPC-3373]: the Water solubility entry in data set [1] is listed as “much more water soluble”.

For the molecule `CCCCCc1cc(O)c2c(c1)OC(C)(C)[C@@H]1CCC(C)=C[C@@H]21` [THC, Delta-9-tetrahydrocannabinol], in data set [2], the “Excreted in the feces” value was “More than 55%” and the “Excreted in the urine” value is recorded as “approximately 20%”.

For the molecule `CN1CCCC1c1cccnc1` (stereo not shown) [nicotine], in data set [3] (crosses the blood-brain barrier), the “Time to reach the brain after inhalation” value is 10 to 20 s. Further, the “Elimination half-life in the body” value in data set [3] (in vivo) is reported as “approximately two”.

B1: Aptamer 493: selected derived B7-HTHC DNA aptamer (nucleic acid)
DNA: CCTGTCAGTTGCTTACCGGGCACGAGTACGAGACTGCAGGATTCTTCTACACTGCACCCCATGTAGTGTCCTTGCTC
modifications: DNA, backbone and methylation of C not given here
Regarding B1, the “Normalized absorption signal, aptamer binding to immunocomplex” value (“Normalized absorption signal” below) in the data set on B7-HTHC immunocomplex (setting [6]) and with B7-HTHC immunocomplex (setting [7]) was “the opposite behavior compared to that of aptamer 444” throughout.

B2: B7C4: parent DNA aptamer selective for the B7-HTHC immune complex (nucleic acid)
DNA: CCTGTCAGTTGCTTACCGGGCACGAGTACGAGACTGCAGGATTCTTCTACACTGCCCCCCATGTAGTGTCCTTGCTCGT
modifications: DNA, backbone not given here; further chemistry not fully specified
With B2, the “Aptamer binding to B7 antibody alone” value in the data set on B7 antibody alone is “minimal binding”; with B7 antibody alone (listed as B7C4-HTHC), “residual binding affinity”. For the same molecule, the results for the “Aptamer binding to B7-HTHC immune complex” value in the data set on B7-HTHC immune complex [4] and with B7-HTHC immune complex [4] (listed as B7C4-HTHC) were “significant binding” and “high affinity”, respectively. In addition, in the data set on B7-THC immune complex, the “Aptamer binding to B7-THC immune complex” value was “minimal binding”.

B3: Aptamer 368.2: selected derived B7-HTHC DNA aptamer (nucleic acid)
DNA: B2 DNA with C56T
modifications: DNA, backbone and methylation of C not given here
Regarding B3, the “Normalized absorption signal” value with B7-HTHC immunocomplex (setting [6]) and in the data set with B7-HTHC immunocomplex (setting [7]) was “significant binding” each time.

B4: Aptamer 444: selected derived B7-HTHC DNA aptamer (nucleic acid)
DNA: B2 DNA with C56G
modifications: DNA, backbone and methylation of C not given here
Take B4: the figures for the “Normalized absorption signal” value with B7-HTHC immunocomplex (setting [6]) and in the data set on B7-HTHC immunocomplex (setting [7]) were “high sensitivity” and “reduced sensitivity”, respectively.

B5: Aptamer 815: selected derived B7-HTHC DNA aptamer, family 2 (nucleic acid)
DNA: B2 DNA with G30T
modifications: DNA, backbone and methylation of C not given here
For the molecule B5, the entries for the “Normalized absorption signal” value in the data set on B7-HTHC immunocomplex (setting [6]) and with B7-HTHC immunocomplex (setting [7]) were “high binding” and “lost this ability”, respectively.

B6: B7C1: candidate DNA aptamer for antibody B7 and HTHC (nucleic acid)
DNA: CCTGTCAGTTGCTTACCGGCCCAGGTGTAGTAACTGCAGGGATTCTTAACGTAGCTACCGGGTGTAGTGTCCTTGCTCGT
modifications: DNA, backbone not given here; further chemistry not fully specified
notes: candidate DNA aptamer for antibody B7 and HTHC
In the case of B6, the “Binding to immune complex by capillary electrophoresis” value in the data set on B7-HTHC immune complex [5] is reported as “peak shifts associated with the introduction of the immune complex”.
